From publication PMC8545111, “Molecular Basis of the Versatile Regulatory Mechanism of HtrA-Type Protease AlgW from Pseudomonas aeruginosa” (mBio, 2021)

Tested on: AlgW and mutants
Assay: Apparent activation parameters of AlgW and mutants (peptide agonist gradient)
Assay type: biochemical, Pseudomonas aeruginosa
Details: peptide activator (decapeptide) gradient, substrate Abz-VLAG-pNA, Michaelis-Menten fit, means of three independent determinations; for Maximal cleavage activity: Tris pH 7.5, 150 mM NaCl, 37°C; for EC50: read-out: Half-maximal activation concn
Description: For the enzyme mechanism of AlgW (30–389) and mutants, two internally quenched fluorescent peptide substrates incorporating the peptidase cleavage site of MucA/MucB, Abz-VLAG-pNA and Abz-TVAW-pNA, were designed and synthesized (GL Biochem Shanghai Ltd., China). In the intact peptide, the fluorescence of the anthraniloyl group is quenched by the P-nitroaniline (Abz is a fluorogenic group, and pNA is a quencher of fluorescence). This quenched fluorescence is liberated upon cleavage of peptide by 200 nM AlgW and mutants (200/3 nM for trimer), resulting in increased fluorescence that can then be monitored fluorometrically. Prior to the assay, all enzyme preparations were incubated with 10 mM agonist peptides (WVF or SVRDELRWVF) for 30 min at room temperature. All assays were placed in a buffer containing 25 mM Tris (pH 7.5) and 150 mM NaCl at 37°C for 1 h, and the final assay volume was 100 μl. The fluorescent degradation products were monitored at 60-s intervals at fluorescence wavelength—λex = 310 nm, λem = 420 nm ([41]). All data points were representative of three independent determinations and were simulated with solid lines with the formula Y = Vmax · X^h/(Km ^h + X^h) or Y = Vmax · X^h/(Khalf^h + X^h) or the Michaelis-Menten formula (Y = Vmax · X/[Km + X]). Substrate versus velocity was used to determine Km and Vmax, and agonists versus velocity was used to determine the half-maximal activation concentration and maximum activation rate of agonists. The fitting and calculation of data were carried out using Prism 7 (GraphPad, CA, USA).

Row | Molecule | Maximal cleavage activity [µM/min] | EC50 [nM]
1 | AlgW-R374A (protein, left off: His6, C-terminal, state not stated) VGLPRQEVHVEQAPLLSRLQEGPVSYANAVSRAAPAVANLYTTKMVSKPSHPLFDDPMFRRFFGDNLPQQKRMESSLGSAVIMSAEGYLLTNNHVTAGADQIIVALRDGRETIAQLVGSDPETDLAVLKIDLKNLPAMTLGRSDGIRTGDVCLAIGNPFGVGQTVTMGIISATGRNQLGLNTYEDFIQTDAAINPGNSGGALVDAAGNLIGINTAIFSKSGGSQGIGFAIPTKLALEVMQSIIEHGQVIRGWLGVEVKALTPELAESLGLGETAGIVVAGVYRDGPAARGGLLPGDVILTIDKQEASDGRRSMNQVARTRPGQKISIVVLRNGQKVNLTAEVGLAPPPAPAPQQKQDGGE | 5.45 ± 0.68 | –
2 | AlgW-R347A (protein, left off: His6, C-terminal, state not stated) VGLPRQEVHVEQAPLLSRLQEGPVSYANAVSRAAPAVANLYTTKMVSKPSHPLFDDPMFRRFFGDNLPQQKRMESSLGSAVIMSAEGYLLTNNHVTAGADQIIVALRDGRETIAQLVGSDPETDLAVLKIDLKNLPAMTLGRSDGIRTGDVCLAIGNPFGVGQTVTMGIISATGRNQLGLNTYEDFIQTDAAINPGNSGGALVDAAGNLIGINTAIFSKSGGSQGIGFAIPTKLALEVMQSIIEHGQVIRGWLGVEVKALTPELAESLGLGETAGIVVAGVYRDGPAARGGLLPGDVILTIDKQEASDGRRSMNQVAATRPGQKISIVVLRNGQKVNLTAEVGLRPPPAPAPQQKQDGGE | 63.5 ± 8.42 | 1850 ± 990
3 | AlgW-W281A (protein, left off: His6, C-terminal, state not stated) VGLPRQEVHVEQAPLLSRLQEGPVSYANAVSRAAPAVANLYTTKMVSKPSHPLFDDPMFRRFFGDNLPQQKRMESSLGSAVIMSAEGYLLTNNHVTAGADQIIVALRDGRETIAQLVGSDPETDLAVLKIDLKNLPAMTLGRSDGIRTGDVCLAIGNPFGVGQTVTMGIISATGRNQLGLNTYEDFIQTDAAINPGNSGGALVDAAGNLIGINTAIFSKSGGSQGIGFAIPTKLALEVMQSIIEHGQVIRGALGVEVKALTPELAESLGLGETAGIVVAGVYRDGPAARGGLLPGDVILTIDKQEASDGRRSMNQVARTRPGQKISIVVLRNGQKVNLTAEVGLRPPPAPAPQQKQDGGE | 10.32 ± 1.51 | 1510 ± 720
4 | AlgW-Y212A (protein, left off: His6, C-terminal, state not stated) VGLPRQEVHVEQAPLLSRLQEGPVSYANAVSRAAPAVANLYTTKMVSKPSHPLFDDPMFRRFFGDNLPQQKRMESSLGSAVIMSAEGYLLTNNHVTAGADQIIVALRDGRETIAQLVGSDPETDLAVLKIDLKNLPAMTLGRSDGIRTGDVCLAIGNPFGVGQTVTMGIISATGRNQLGLNTAEDFIQTDAAINPGNSGGALVDAAGNLIGINTAIFSKSGGSQGIGFAIPTKLALEVMQSIIEHGQVIRGWLGVEVKALTPELAESLGLGETAGIVVAGVYRDGPAARGGLLPGDVILTIDKQEASDGRRSMNQVARTRPGQKISIVVLRNGQKVNLTAEVGLRPPPAPAPQQKQDGGE | 39.46 ± 6.17 | 2120 ± 620
5 | AlgW-L282A (protein, left off: His6, C-terminal, state not stated) VGLPRQEVHVEQAPLLSRLQEGPVSYANAVSRAAPAVANLYTTKMVSKPSHPLFDDPMFRRFFGDNLPQQKRMESSLGSAVIMSAEGYLLTNNHVTAGADQIIVALRDGRETIAQLVGSDPETDLAVLKIDLKNLPAMTLGRSDGIRTGDVCLAIGNPFGVGQTVTMGIISATGRNQLGLNTYEDFIQTDAAINPGNSGGALVDAAGNLIGINTAIFSKSGGSQGIGFAIPTKLALEVMQSIIEHGQVIRGWAGVEVKALTPELAESLGLGETAGIVVAGVYRDGPAARGGLLPGDVILTIDKQEASDGRRSMNQVARTRPGQKISIVVLRNGQKVNLTAEVGLRPPPAPAPQQKQDGGE | 13.24 ± 1.59 | 2760 ± 1190
6 | AlgW-E151A (protein, left off: His6, C-terminal, state not stated) VGLPRQEVHVEQAPLLSRLQEGPVSYANAVSRAAPAVANLYTTKMVSKPSHPLFDDPMFRRFFGDNLPQQKRMESSLGSAVIMSAEGYLLTNNHVTAGADQIIVALRDGRETIAQLVGSDPATDLAVLKIDLKNLPAMTLGRSDGIRTGDVCLAIGNPFGVGQTVTMGIISATGRNQLGLNTYEDFIQTDAAINPGNSGGALVDAAGNLIGINTAIFSKSGGSQGIGFAIPTKLALEVMQSIIEHGQVIRGWLGVEVKALTPELAESLGLGETAGIVVAGVYRDGPAARGGLLPGDVILTIDKQEASDGRRSMNQVARTRPGQKISIVVLRNGQKVNLTAEVGLRPPPAPAPQQKQDGGE | 34.93 ± 1.87 | 2990 ± 560
7 | AlgW-E266A (protein, left off: His6, C-terminal, state not stated) VGLPRQEVHVEQAPLLSRLQEGPVSYANAVSRAAPAVANLYTTKMVSKPSHPLFDDPMFRRFFGDNLPQQKRMESSLGSAVIMSAEGYLLTNNHVTAGADQIIVALRDGRETIAQLVGSDPETDLAVLKIDLKNLPAMTLGRSDGIRTGDVCLAIGNPFGVGQTVTMGIISATGRNQLGLNTYEDFIQTDAAINPGNSGGALVDAAGNLIGINTAIFSKSGGSQGIGFAIPTKLALAVMQSIIEHGQVIRGWLGVEVKALTPELAESLGLGETAGIVVAGVYRDGPAARGGLLPGDVILTIDKQEASDGRRSMNQVARTRPGQKISIVVLRNGQKVNLTAEVGLRPPPAPAPQQKQDGGE | 60.51 ± 5.07 | 1080 ± 500
8 | AlgW-D149A (protein, left off: His6, C-terminal, state not stated) VGLPRQEVHVEQAPLLSRLQEGPVSYANAVSRAAPAVANLYTTKMVSKPSHPLFDDPMFRRFFGDNLPQQKRMESSLGSAVIMSAEGYLLTNNHVTAGADQIIVALRDGRETIAQLVGSAPETDLAVLKIDLKNLPAMTLGRSDGIRTGDVCLAIGNPFGVGQTVTMGIISATGRNQLGLNTYEDFIQTDAAINPGNSGGALVDAAGNLIGINTAIFSKSGGSQGIGFAIPTKLALEVMQSIIEHGQVIRGWLGVEVKALTPELAESLGLGETAGIVVAGVYRDGPAARGGLLPGDVILTIDKQEASDGRRSMNQVARTRPGQKISIVVLRNGQKVNLTAEVGLRPPPAPAPQQKQDGGE | 8.16 ± 0.85 | –
9 | AlgW-R279A (protein, left off: His6, C-terminal, state not stated) VGLPRQEVHVEQAPLLSRLQEGPVSYANAVSRAAPAVANLYTTKMVSKPSHPLFDDPMFRRFFGDNLPQQKRMESSLGSAVIMSAEGYLLTNNHVTAGADQIIVALRDGRETIAQLVGSDPETDLAVLKIDLKNLPAMTLGRSDGIRTGDVCLAIGNPFGVGQTVTMGIISATGRNQLGLNTYEDFIQTDAAINPGNSGGALVDAAGNLIGINTAIFSKSGGSQGIGFAIPTKLALEVMQSIIEHGQVIAGWLGVEVKALTPELAESLGLGETAGIVVAGVYRDGPAARGGLLPGDVILTIDKQEASDGRRSMNQVARTRPGQKISIVVLRNGQKVNLTAEVGLRPPPAPAPQQKQDGGE | 26.87 ± 3.21 | 2190 ± 990
